The source of these data is article PMC3352088, “Structure and function of the transketolase from Mycobacterium tuberculosis and comparison with the human enzyme” (Open Biology, 2012).

One may read the Km as the concentration of substrate that gives half-maximal velocity. What is called stoichiometry N is a count of units in the complex or per binding partner.

Series [1] has as its system O=C(CO)[C@@H](O)[C@H](O)COP(=O)(O)O. Description: purified protein. Particulars: TPP, Mg2+ donor substrate; substrate cleft.
Series [2] concerns O=C(CO)[C@@H](O)[C@H](O)[C@H](O)COP(=O)(O)O. Briefly: purified protein. Particulars: TPP, Mg2+ donor substrate; substrate cleft.
Series [3] deals with O=C[C@H](O)[C@H](O)[C@H](O)COP(=O)(O)O. Description: purified protein. As to conditions: TPP, Mg2+ acceptor substrate; substrate cleft.
Series [4] concerns the molecule itself. Description: crystal structure; TBTKT with TPP and Mg2+, space group P1, four molecules (two dimers) in the asymmetric unit, 2.5 Å; crystals from 0.1 M ammonium acetate, 0.1 M bis-tris pH 5.5, 17% w/v PEG 10 000, 22°C.

With “transketolase (TBTKT) (Mycobacterium tuberculosis H37Rv)”, the Michaelis-Menten constant (Km) came to 350 ± 120 µM in series [1], 630 ± 90 µM in series [2] and 820 ± 120 µM in series [3].

B1: transketolase from Mycobacterium tuberculosis (TBTKT) (enzyme)
chain: MTTLEEISALTRPRHPDYWTEIDSAAVDTIRVLAADAVQKVGNGHPGTAMSLAPLAYTLFQRTMRHDPSDTHWLGRDRFVLSAGHSSLTLYIQLYLGGFGLELSDIESLRTWGSKTPGHPEFRHTPGVEITTGPLGQGLASAVGMAMASRYERGLFDPDAEPGASPFDHYIYVIASDGDIEEGVTSEASSLAAVQQLGNLIVFYDRNQISIEDDTNIALCEDTAARYRAYGWHVQEVEGGENVVGIEEAIANAQAVTDRPSFIALRTVIGYPAPNLMDTGKAHGAALGDDEVAAVKKIVGFDPDKTFQVREDVLTHTRGLVARGKQAHERWQLEFDAWARREPERKALLDRLLAQKLPDGWDADLPHWEPGSKALATRAASGAVLSALGPKLPELWGGSADLAGSNNTTIKGADSFGPPSISTKEYTAHWYGRTLHFGVREHAMGAILSGIVLHGPTRAYGGTFLQFSDYMRPAVRLAALMDIDTIYVWTHDSIGLGEDGPTHQPIEHLSALRAIPRLSVVRPADANETAYAWRTILARRNGSGPVGLILTRQGVPVLDGTDAEGVARGGYVLSDAGGLQPGEEPDVILIATGSEVQLAVAAQTLLADNDILARVVSMPCLEWFEAQPYEYRDAVLPPTVSARVAVEAGVAQCWHQLVGDTGEIVSIEHYGESADHKTLFREYGFTAEAVAAAAERALDN
notes: also called Rv1449; rv1449c gene product
B1: the “stoichiometry N” value in series [4] was 2.
